The values below come from publication PMC12527917, “Regulation of kinesin-2 motility by its β-hairpin motif” (Nature Structural & Molecular Biology, 2025).

First the molecules themselves.
B1: Kap3 (human) (natural protein, UniProt Q92845 1-792, looked up)
chain: MQGEDARYLKRKVKGGNIDVHPSEKALIVHYEVEATILGEMGDPMLGERKECQKIIRLKSLNANTDITSLARKVVEECKLIHPSKLNEVEQLLYYLQNRRDSLSGKEKKEKSSKPKDPPPFEGMEIDEVANINDMDEYIELLYEDIPDKVRGSALILQLARNPDNLEELLLNETALGALARVLREDWKQSVELATNIIYIFFCFSSFSQFHGLITHYKIGALCMNIIDHELKRHELWQEELSKKKKAVDEDPENQTLRKDYEKTFKKYQGLVVKQEQLLRVALYLLLNLAEDTRTELKMRNKNIVHMLVKALDRDNFELLILVVSFLKKLSIFMENKNDMVEMDIVEKLVKMIPCEHEDLLNITLRLLLNLSFDTGLRNKMVQVGLLPKLTALLGNDNYKQIAMCVLYHISMDDRFKSMFAYTDCIPQLMKMLFECSDERIDLELISFCINLAANKRNVQLICEGNGLKMLMKRALKFKDPLLMKMIRNISQHDGPTKNLFIDYVGDLAAQISNDEEEEFVIECLGTLANLTIPDLDWELVLKEYKLVPYLKDKLKPGAAEDDLVLEVVIMIGTVSMDDSCAALLAKSGIIPALIELLNAQQEDDEFVCQIIYVFYQMVFHQATRDVIIKETQAPAYLIDLMHDKNNEIRKVCDNTLDIIAEYDEEWAKKIQSEKFRWHNSQWLEMVESRQMDESEQYLYGDDRIEPYIHEGDILERPDLFYNSDGLIASEGAISPDFFNDYHLQNGDVVGQHSFPGSLGMDGFGQPVGILGRPATAYGFRPDEPYYYGYGS
notes: Kap3, human, synthesised gene; SNAPf labelled with SNAP-Cell TMR-Star in the TIRF colocalisation assay; No truncation is mentioned; probably the whole protein; source: Sf9 (baculovirus), purified (IgG Sepharose, TEV elution, SEC); not shown: ZZ, N-terminal, cleaved; SNAPf, N-terminal, kept

Conditions in all cases: both partners purified
Test [1] concerns the target T1, Kif3A–Kif3B^ΔC90 heterodimer (ΔInt3) (human, UniProt Q9Y496 1-699; O15066 1-657).
T1 construct: Kif3A, human, synthesised gene, full-length subunit; Kif3B, human, 90 amino acids truncated from the C terminus; source: Sf9 (baculovirus), coexpressed, purified (IgG Sepharose, TEV elution, SEC); not shown: SNAPf, C-terminal, kept; ZZ, N-terminal, cleaved
Kind of test: single-molecule TIRF colocalisation; Alexa-Fluor-647-labelled Kif3AB/C constructs on surface-attached microtubules (1 mM AMPPNP in Fig. 4c), TMR-labelled Kap3 at 1 nM, buffer B, 25 °C; fraction of Kif3A spots with Kap3 signal.

Test [2] has as its target T2, Kif3A–Kif3B^ΔC114 heterodimer (ΔInt2+3) (human, UniProt Q9Y496 1-699; O15066 1-633).
T2 construct: Kif3A, human, synthesised gene, full-length subunit; Kif3B, human, 114 amino acids truncated from the C terminus; source: Sf9 (baculovirus), coexpressed, purified (IgG Sepharose, TEV elution, SEC); not shown: SNAPf, C-terminal, kept; ZZ, N-terminal, cleaved
The test is described as above.

For test [3], the target named is T3, Kif3A^ΔC89–Kif3B heterodimer (ΔInt1) (human, UniProt Q9Y496 1-610; O15066 1-747).
T3 construct: Kif3A, human, 89 amino acids truncated from the C terminus (within the β-hairpin motif); Kif3B, human, synthesised gene, full-length subunit; also called Kif3A^Δ89B; source: Sf9 (baculovirus), coexpressed, purified (IgG Sepharose, TEV elution, SEC); not shown: SNAPf, C-terminal, kept; ZZ, N-terminal, cleaved
T3 sequence (Q9Y496 1-610, stated change not applied, one chain of several): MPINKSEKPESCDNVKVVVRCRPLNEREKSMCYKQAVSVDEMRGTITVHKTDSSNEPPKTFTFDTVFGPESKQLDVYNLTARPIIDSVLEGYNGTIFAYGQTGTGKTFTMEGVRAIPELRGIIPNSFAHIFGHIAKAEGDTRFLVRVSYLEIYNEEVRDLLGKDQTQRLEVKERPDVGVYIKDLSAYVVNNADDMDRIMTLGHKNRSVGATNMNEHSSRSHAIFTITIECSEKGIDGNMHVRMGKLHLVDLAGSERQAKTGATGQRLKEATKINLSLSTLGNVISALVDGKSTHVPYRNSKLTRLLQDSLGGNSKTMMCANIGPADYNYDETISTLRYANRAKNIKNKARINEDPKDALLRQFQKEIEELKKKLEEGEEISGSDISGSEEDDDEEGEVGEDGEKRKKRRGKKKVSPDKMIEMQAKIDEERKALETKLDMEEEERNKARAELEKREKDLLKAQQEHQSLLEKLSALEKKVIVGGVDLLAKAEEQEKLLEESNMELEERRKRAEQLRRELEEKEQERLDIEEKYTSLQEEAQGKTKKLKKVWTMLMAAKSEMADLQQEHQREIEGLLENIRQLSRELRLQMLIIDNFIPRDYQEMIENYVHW
The test is described as above.

Test [4] deals with T4, Kif3AB heterodimer, full length (human, UniProt Q9Y496 1-699; O15066 1-747).
T4 construct: Kif3A, human, synthesised gene, full-length subunit; Kif3B, human, synthesised gene, full-length subunit; SNAPf on Kif3A labelled with Alexa Fluor 647 in the TIRF assays; A Kif3A construct without SNAPf was also cloned; also called Kif3A–Kif3B; Kif3AB^WT; source: Sf9 (baculovirus), coexpressed, purified (IgG Sepharose, TEV elution, SEC); not shown: SNAPf, C-terminal, kept; ZZ, N-terminal, cleaved
T4 sequence (Q9Y496 whole entry, one chain of several): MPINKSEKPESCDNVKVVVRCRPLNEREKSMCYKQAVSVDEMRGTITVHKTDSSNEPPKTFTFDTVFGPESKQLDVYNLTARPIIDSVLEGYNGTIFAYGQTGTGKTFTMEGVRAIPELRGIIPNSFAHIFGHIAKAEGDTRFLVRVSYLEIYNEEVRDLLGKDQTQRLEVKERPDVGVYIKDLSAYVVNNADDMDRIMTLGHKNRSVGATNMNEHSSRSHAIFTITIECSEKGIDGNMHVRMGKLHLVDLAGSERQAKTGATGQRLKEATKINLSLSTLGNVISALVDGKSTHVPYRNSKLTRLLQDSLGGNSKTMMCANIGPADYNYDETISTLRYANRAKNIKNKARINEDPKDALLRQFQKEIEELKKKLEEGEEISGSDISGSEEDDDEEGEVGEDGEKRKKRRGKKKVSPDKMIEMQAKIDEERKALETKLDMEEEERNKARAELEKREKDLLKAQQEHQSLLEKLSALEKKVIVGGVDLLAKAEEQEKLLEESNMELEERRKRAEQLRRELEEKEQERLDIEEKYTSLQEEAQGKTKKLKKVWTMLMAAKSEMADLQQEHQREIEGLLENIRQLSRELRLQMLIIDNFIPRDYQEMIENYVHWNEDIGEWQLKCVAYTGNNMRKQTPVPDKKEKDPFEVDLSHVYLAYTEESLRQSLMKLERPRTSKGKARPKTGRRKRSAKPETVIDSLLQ
The test is described as above.

The target in test [5] is B1. Described as above.
Test [6] addresses T5, Kif3A^ΔC103 (human, UniProt Q9Y496 1-596).
T5 construct: Kif3A, human, 103 amino acids truncated from the C terminus; also called Kif3A^Δ103; source: Sf9 (baculovirus), coexpressed with Kif3B constructs, purified (IgG Sepharose, TEV elution, SEC); not shown: SNAPf, C-terminal, kept
Kind of test: SEC; motor subunits coexpressed in Sf9, purified through the ZZ tag of Kif3B/C on IgG Sepharose, TEV elution, Superose 6 Increase 3.2/300 in buffer A (50 mM Tris-HCl pH 7.5, 150 mM K-acetate, 2 mM Mg-acetate, 5% glycerol, 1 mM DTT, 0.2 mM Mg-ATP); SDS-PAGE of peak fraction. Background: In gel filtration, larger molecules generally elute earlier.

T5 sequence (Q9Y496 1-596, stated change not applied): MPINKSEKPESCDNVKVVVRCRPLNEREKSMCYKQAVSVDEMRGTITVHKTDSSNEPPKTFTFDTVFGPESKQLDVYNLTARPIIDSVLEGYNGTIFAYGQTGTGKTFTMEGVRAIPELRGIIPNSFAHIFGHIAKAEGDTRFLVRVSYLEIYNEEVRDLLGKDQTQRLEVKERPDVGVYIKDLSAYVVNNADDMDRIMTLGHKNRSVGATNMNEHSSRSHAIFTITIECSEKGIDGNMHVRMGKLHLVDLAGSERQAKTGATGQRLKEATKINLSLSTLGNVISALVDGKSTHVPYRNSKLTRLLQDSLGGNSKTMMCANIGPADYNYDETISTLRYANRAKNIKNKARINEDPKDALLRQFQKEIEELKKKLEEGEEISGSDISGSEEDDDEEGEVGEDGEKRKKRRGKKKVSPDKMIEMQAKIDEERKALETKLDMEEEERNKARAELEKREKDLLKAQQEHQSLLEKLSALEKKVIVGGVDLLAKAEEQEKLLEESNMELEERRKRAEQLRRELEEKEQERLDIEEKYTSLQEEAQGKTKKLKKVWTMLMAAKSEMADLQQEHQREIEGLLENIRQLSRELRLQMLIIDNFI
T2 sequence (Q9Y496 whole entry, stated change not applied, the tested form may be a part, one chain of several): as the sequence (Q9Y496 whole entry, one chain of several) above
T1 sequence (Q9Y496 whole entry, stated change not applied, the tested form may be a part, one chain of several): as the sequence (Q9Y496 whole entry, one chain of several) above

On to B1, for which the “percent of Kif3AB molecules with colocalised Kap3” value is 62% in test [1], 50% in test [2], 26% in test [3] and 82% in test [4].

B2: Kif3B (human kinesin-2 motor subunit), full length (natural protein, UniProt O15066 1-747, looked up)
chain: MSKLKSSESVRVVVRCRPMNGKEKAASYDKVVDVDVKLGQVSVKNPKGTAHEMPKTFTFDAVYDWNAKQFELYDETFRPLVDSVLQGFNGTIFAYGQTGTGKTYTMEGIRGDPEKRGVIPNSFDHIFTHISRSQNQQYLVRASYLEIYQEEIRDLLSKDQTKRLELKERPDTGVYVKDLSSFVTKSVKEIEHVMNVGNQNRSVGATNMNEHSSRSHAIFVITIECSEVGLDGENHIRVGKLNLVDLAGSERQAKTGAQGERLKEATKINLSLSALGNVISALVDGKSTHIPYRDSKLTRLLQDSLGGNAKTVMVANVGPASYNVEETLTTLRYANRAKNIKNKPRVNEDPKDALLREFQEEIARLKAQLEKRSIGRRKRREKRREGGGSGGGGEEEEEEGEEGEEEGDDKDDYWREQQEKLEIEKRAIVEDHSLVAEEKMRLLKEKEKKMEDLRREKDAAEMLGAKIKAMESKLLVGGKNIVDHTNEQQKILEQKRQEIAEQKRREREIQQQMESRDEETLELKETYSSLQQEVDIKTKKLKKLFSKLQAVKAEIHDLQEEHIKERQELEQTQNELTRELKLKHLIIENFIPLEEKSKIMNRAFFDEEEDHWKLHPITRLENQQMMKRPVSAVGYKRPLSQHARMSMMIRPEARYRAENIVLLELDMPSRTTRDYEGPAIAPKVQAALDAALQDEDEIQVDASSFESTANKKSKARPKSGRKSGSSSSSSGTPASQLYPQSRGLVPK
notes: Kif3B, human, synthesised gene, full-length subunit; source: Sf9 (baculovirus), coexpressed with Kif3A, purified (IgG Sepharose, TEV elution, SEC); not shown: ZZ, N-terminal, cleaved
For B2, the binding result in test [5] is reported as “binds”.

B3: Kif3B^ΔC156 (domain or fragment, human, UniProt O15066 1-591, looked up)
chain: MSKLKSSESVRVVVRCRPMNGKEKAASYDKVVDVDVKLGQVSVKNPKGTAHEMPKTFTFDAVYDWNAKQFELYDETFRPLVDSVLQGFNGTIFAYGQTGTGKTYTMEGIRGDPEKRGVIPNSFDHIFTHISRSQNQQYLVRASYLEIYQEEIRDLLSKDQTKRLELKERPDTGVYVKDLSSFVTKSVKEIEHVMNVGNQNRSVGATNMNEHSSRSHAIFVITIECSEVGLDGENHIRVGKLNLVDLAGSERQAKTGAQGERLKEATKINLSLSALGNVISALVDGKSTHIPYRDSKLTRLLQDSLGGNAKTVMVANVGPASYNVEETLTTLRYANRAKNIKNKPRVNEDPKDALLREFQEEIARLKAQLEKRSIGRRKRREKRREGGGSGGGGEEEEEEGEEGEEEGDDKDDYWREQQEKLEIEKRAIVEDHSLVAEEKMRLLKEKEKKMEDLRREKDAAEMLGAKIKAMESKLLVGGKNIVDHTNEQQKILEQKRQEIAEQKRREREIQQQMESRDEETLELKETYSSLQQEVDIKTKKLKKLFSKLQAVKAEIHDLQEEHIKERQELEQTQNELTRELKLKHLIIENFI
notes: Kif3B, human, 156 amino acids truncated from the C terminus (removes the Kif3B β-hairpin motif); also called Kif3B^Δ156; source: Sf9 (baculovirus), coexpressed with Kif3A^ΔC103, purified (IgG Sepharose, TEV elution, SEC); not shown: ZZ, N-terminal, cleaved
As to B3, the binding result in test [6] is reported as “binds”.
